Measured values as given in patent US20140087995A1 (published 2014).
Numbered stars: 1 amine (or outer) side, 2 acyl side, 3 side chain; on linkers, the order of the positions; unused ones are H or OH. Bridge positions count the residues as written; N and C are the ends. Side chains are listed from the residue outwards. Ends that are not written are not given here. * marks the point of attachment. C20 diacid = O=C(O)CCCCCCCCCCCCCCCCCCC(=O)*; γGlu = O=C(O)[C@H](CCC(=O)[*:2])N[*:1]

T1: human amylin receptor (human, UniProt P30988 25-474; O60896 24-148, limits assumed)
T1 construct: whole, on cells; Calcitonin receptor plus RAMP-3 gives the amylin 3(a) receptor; membranes of Amylin 3(a)/CRE-luc cells were used; also called hAmylin-R; hAmylinR
T1 sequence (looked up) 1: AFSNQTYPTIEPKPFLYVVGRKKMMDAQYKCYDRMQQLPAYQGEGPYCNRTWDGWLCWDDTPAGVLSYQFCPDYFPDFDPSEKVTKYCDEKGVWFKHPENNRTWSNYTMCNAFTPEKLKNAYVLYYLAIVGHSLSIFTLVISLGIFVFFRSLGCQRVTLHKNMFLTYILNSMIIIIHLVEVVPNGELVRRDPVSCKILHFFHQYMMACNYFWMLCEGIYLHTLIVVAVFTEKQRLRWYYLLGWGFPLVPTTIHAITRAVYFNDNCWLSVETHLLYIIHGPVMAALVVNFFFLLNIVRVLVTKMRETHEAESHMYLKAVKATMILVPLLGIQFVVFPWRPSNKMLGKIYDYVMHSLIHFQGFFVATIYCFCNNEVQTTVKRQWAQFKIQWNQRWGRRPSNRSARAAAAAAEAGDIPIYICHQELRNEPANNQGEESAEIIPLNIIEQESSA
T1 sequence (looked up) 2: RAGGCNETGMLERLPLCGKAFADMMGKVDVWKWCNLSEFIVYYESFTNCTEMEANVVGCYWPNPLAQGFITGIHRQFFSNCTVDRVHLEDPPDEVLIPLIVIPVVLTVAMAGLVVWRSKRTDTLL


Biological target: T1, human amylin receptor
Assay: SPA competition binding, displacement of 125I-rat amylin from membranes with human amylin 3(a) receptor (Assay V)
Summary of the method: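 SPA beads with BHK Amylin 3(a)/CRE-luc cell membranes (35 ng/μL final) in 50 mM Hepes pH 7.4, 1 mM CaCl2, 5 mM MgCl₂, 0.1% OA, 0.02% Tween20.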

Row | IC50 [nM] | Binder
1 | 0.148 | K([γGlu-C20 diacid])CNTATCATQRLAAFLRHSSPNFGAIPSSTNVGPNTY-NH2 (disulfide 2-7; N-terminus assumed; SMILES CC[C@H](C)[C@H](NC(=O)[C@H](C)NC(=O)CNC(=O)[C@H](Cc1ccccc1)NC(=O)[C@H](CC(N)=O)NC(=O)[C@@H]1CCCN1C(=O)[C@H](CO)NC(=O)[C@H](CO)NC(=O)[C@H](Cc1c[nH]cn1)NC(=O)[C@H](CCCNC(=N)N)NC(=O)[C@H](CC(C)C)NC(=O)[C@H](Cc1ccccc1)NC(=O)[C@H](C)NC(=O)[C@H](C)NC(=O)[C@H](CC(C)C)NC(=O)[C@H](CCCNC(=N)N)NC(=O)[C@H](CCC(N)=O)NC(=O)[C@@H](NC(=O)[C@H](C)NC(=O)[C@@H]1CSSC[C@H](NC(=O)[C@@H](N)CCCCNC(=O)CC[C@H](NC(=O)CCCCCCCCCCCCCCCCCCC(=O)O)C(=O)O)C(=O)N[C@@H](CC(N)=O)C(=O)N[C@@H]([C@@H](C)O)C(=O)N[C@@H](C)C(=O)N[C@@H]([C@@H](C)O)C(=O)N1)[C@@H](C)O)C(=O)N1CCC[C@H]1C(=O)N[C@@H](CO)C(=O)N[C@@H](CO)C(=O)N[C@H](C(=O)N[C@@H](CC(N)=O)C(=O)N[C@H](C(=O)NCC(=O)N1CCC[C@H]1C(=O)N[C@@H](CC(N)=O)C(=O)N[C@H](C(=O)N[C@@H](Cc1ccc(O)cc1)C(N)=O)[C@@H](C)O)C(C)C)[C@@H](C)O, also called 14A, 17R, 21P, 27P, 34P)
2 | 0.649 | K([γGlu-C20 diacid])CNTATCATQRLARFLRHSSPNFGAIPSSTNVGPNTY-NH2 (disulfide 2-7; N-terminus assumed; SMILES CC[C@H](C)[C@H](NC(=O)[C@H](C)NC(=O)CNC(=O)[C@H](Cc1ccccc1)NC(=O)[C@H](CC(N)=O)NC(=O)[C@@H]1CCCN1C(=O)[C@H](CO)NC(=O)[C@H](CO)NC(=O)[C@H](Cc1c[nH]cn1)NC(=O)[C@H](CCCNC(=N)N)NC(=O)[C@H](CC(C)C)NC(=O)[C@H](Cc1ccccc1)NC(=O)[C@H](CCCNC(=N)N)NC(=O)[C@H](C)NC(=O)[C@H](CC(C)C)NC(=O)[C@H](CCCNC(=N)N)NC(=O)[C@H](CCC(N)=O)NC(=O)[C@@H](NC(=O)[C@H](C)NC(=O)[C@@H]1CSSC[C@H](NC(=O)[C@@H](N)CCCCNC(=O)CC[C@H](NC(=O)CCCCCCCCCCCCCCCCCCC(=O)O)C(=O)O)C(=O)N[C@@H](CC(N)=O)C(=O)N[C@@H]([C@@H](C)O)C(=O)N[C@@H](C)C(=O)N[C@@H]([C@@H](C)O)C(=O)N1)[C@@H](C)O)C(=O)N1CCC[C@H]1C(=O)N[C@@H](CO)C(=O)N[C@@H](CO)C(=O)N[C@H](C(=O)N[C@@H](CC(N)=O)C(=O)N[C@H](C(=O)NCC(=O)N1CCC[C@H]1C(=O)N[C@@H](CC(N)=O)C(=O)N[C@H](C(=O)N[C@@H](Cc1ccc(O)cc1)C(N)=O)[C@@H](C)O)C(C)C)[C@@H](C)O, also called 14R, 17R, 21P, 27P, 34P)
